Test: soluble on expression in E. coli; label from the status in PepcDB or PDB records

Sequence	soluble on expression in E. coli
MSLSTVTMILGQSGTGKSTSLRNLDPSQTLLIQAIKKPLPFKSGNWKPANKENPAGSIFVCDSAATIVGAMKRTKRPVIVIDDFQYVMANEFMRRSAEKGFDKFTEIGRNAWDILVEAARLPDEVRVYVLSHVETTDDGRTKIKTIGRMLDEKITLEGMVSIVLKTVVQDGQHFFATRNNGSDTVKTPMGMFDADLIENDLAAVDTAIYQYYGLTEAEGHHHHHH	not soluble
LPVTDNHIHVDDKHGYGAEKVAKTFYNAGGKVMIVLNKPTFDGNLTASMDILVRDVEIINKNTPVKAFGLVGVHPAELTYLMKFMSLEEAKQRIVDALNYAKKLVEEYDFIVGIGEVGRPHYPVSEDVWKASNEILKYCMELAKDIGCAIQIHAESSTEEQFKEFSEMAKEVGLNPEKVVKHHCGNMVLEGERYGIFPSILASRVNEDVVKKSLRFVMETDYIDDLKRPGVALGIKTVPRVTRRLIEKGVLDEEGVYKIHKENIERIYDM	not soluble
MGSDKIHHHHHHVAQDVITQAPLGFGLGLRTQHFDAVLNTEPDIDWFEVLSENYMVAGGKPRYYLKEIGERYPLVMHGVSLSIGSTDPLNMDYLKALKQLANDVQPQWISDHICWTSIHGVNSHDLLPLPYTEETVKHVAQRIKTVQDFLGRRILMENVSSYLSYQDSSMDEWEFVNAVAEAADCLILLDINNIYVSARNHNFNPLDYLNKINPKRVQQFHLAGHSDYGDYVIDTHDHDVPSCVWDLYCAALKRFGGISTMIERDANIPEFYALEAELTIARNIARDTLGKAHPLNAAKNRKNMHEGKVIA	not soluble
MTVFRQENVDDYYDTGEELGSGQFAVVKKCREKSTGLQYAAKFIKKRRTKSSRRGVSREDIEREVSILKEIQHPNVITLHEVYENKTDVILILELVAGGELFDFLAEKESLTEEEATEFLKQILNGVYYLHSLQIAHFDLKPENIMLLDRNVPKPRIKIIDFGLAHKIDFGNEFKNIFGTPEFVAPEIVNYEPLGLEADMWSIGVITYILLSGASPFLGDTKQETLANVSAVNYEFEDEYFSNTSALAKDFIRRLLVKDPKKRMTIQDSLQHPWIKPKDTQQALSRKASAVNMEKFKKFAARKKWKQSVRLISLCQRLSRSFLSRSNMSVARSD	soluble
MAHHHHHHMLKKFSPLSFMVLQKRYNKSEQKIFDKIKNIINSNKNLRHTDDEKDKIEIINIDNEIINKENISFKCNIINEDSTKNENKKDNIDEMTNVNIYDDYFNINDEYNNVMSNDNDNVDIKSFIRETVDYYKSLQLKKKEDHLNVLNVKKKDYSNIKEYYNKNEEIKEIVQDNNFIWNNKNYDKKNIHSGFHSDIIYYDNYDTTKSKHNQNIQNGQNIQNGQNIQNGQNIQNNQNNQNIQNIQNNQNNQHCHNSTHEKNCGSYNFLTPAQVFFENNKEKLIQESYKYYKERENNINKEDYLYDENEGYYNYANMKTPIIRPNDKEGFLFNYEDDDYNNNDDEGEDDMTLEKGIMPTIEQIVCILKHEKVKDIKVIDLDKCGRRDIGMFLILCTGNTAKHNKKVGKLISKIFIDLEIPYISNVVYCYCNKFDDWIITHCGPLKINIVTKELRNLYDIENLFLYPHEHFDSTNFPSFFDYTPGIPPPYLVRSNASMDSYKNDDIYTKFLTEK	not soluble
MGSDKIHHHHHHMTVNDYALVTGASGFLGSAVVRQALARGWRVRALVRATSPRANLDGLPVEVFEGDMRDPAALTSAMRGVRYLFHVAADYRLWAPDPEEIVRTNVDGTMAVMEAAQEAGVERVVYTSSVATLRVAGASAPVDETAAMTPHEAIGAYKRSKVLAERVVERMVAERGLPAVIVNPSTPIGPRDVRPTPTGRIIVEAATGKIPAFVETGLNLVHVDDVAAGHFQALERGRIGERYILGGDDVMLQQMLRDIADLCGRRPPTVQLPRWPLYPLAHAAEAVARITRKEPFVTVDGLHMSKYRMFFRSDKARQELGYQPRPYIDGLRDALDWFREAGYLR	not soluble
MMSDRDYTLIIDKSGSMSTPDQAGGRSRWEIAQESTLALARKCEQFDPDGITVYLFSGKFKRYDDVTSAKVAQIFLENDPAGTTNLAGVLQDALNNYFQRKAAGKTKPNGETILVITDGEPDDRKAVFETIIHATRQMERDEELGISMIQVGSDAQATKFLKALDDQLQSVGAKFDICDTITLEDLEDMSLADVLMNAITDLEHHHHHH	soluble
MGSDKIHHHHHHETQPESAAFTAPSTDNPIRINFNENPLGMSPKAQAAARDAVVKANRYAKNEILMLGNKLAAHHQVEAPSILLTAGSSEGIRAAIEAYASLEAQLVIPELTYGDGEHFAKIAGMKVTKVKMLDNWAFDIEGLKAAVAAYSGPSIVYLVNPNNPTGTITPADVIEPWIASKPANTMFIVDEAYAEFVNDPRFRSISPMITQGAENIILLKTFSKIHAMAGMRVGYAVAHPTVIALMGRYVAGEKINFSGVDAALASMNDSAFITYSKKSNDVSRQILLKALEDLKLPYLPSEGNFVFHQLVVPLKDYQTHMADAGVLIGRAFPPADNWCRISLGTPQEMQWVADTMREFRKKSWI	not soluble
MKYRITTWLAAALMLSSLHATAASLSDIQVSNGDQQARITLSFVGEPEYSFTPQGKRLVALDIKQTGVLQGLPLQFSGSNLVKSIRAGTPQDTQTLRLLVDLTEDGKTRAVKQQNGANYTVVFTINAEAPPPPVVVKRADPPPVMPSRTTTPGRNPFSSSGHERQTVMTSSQPAMTNNQTVTRPAARTVSADDKVIIAIDAGHGGQDPGAIGPNGTKEKNVTIAIARKLRALLNADPQFKPVLTRDGDYFISVMGRSEVARKQNANFLVSIHADAAPNRDATGASVWVLSNRRANSEMAGWLEQHEKQSELLGGAGDVLANSQADPYLSQAVLDLQFGHSQRVGYDVATNVLSQLQRIGNLHKRRPEHASLGVLRSPDIPSILVETGFISNNGEERLLGSDDYQEQIAEAIYNGLRNYFMQHPLQSAPRGEAAQTASAAAPGGMLIN	not soluble
MGSDKIHHHHHHMSSPSFNVEEHKKMLQSYFNGQGFQRWASIYGDDKLSTVRSTVRQGHAVMMDKAFEWLQKTGLPKGSKILDAGCGTGLFTIRLAKSGYRVKAADIAEQMVNKTREDAEKAGVAGNVEFEVNSIESVSGTFDAVVCFDVLIHYPAEGFAHAFSNLAGLTKGPIIFTYAPFNNILAFQHWIGGFFPKKERRTTIQMIKDKEMQRVLSELGLKIVSQQKISFGFYHTMLMHVARR	not soluble
VDLPGNDFDSNDFDAVDLWGADGAEGWTADPIIGVGSAATPDTGPDLDNAHGQAETDTEQEIALFTVTNPPRTVSVSTLMDGRIDHVELSARVAWMSESQLASEILVIADLARQKAQSAQYAFILDRMSQQVDADEHRVALLRKTVGETWGLPSPEEAAAAEAEVFATRYSDDCPAPDDESDPW	soluble
MPTPFRDLHNKSNASASSYETAWSSSFSSRRSTNNDSKSNLKEIKDEPISNLDESISILENNISMMSVSSPTPAYRTPARVIAREAPMTPGDRLLQKIEKEDERDMLRQLYPEMFDSNQKPRQKPKEVKKALKVESLSDYENDDKENVPPCGKPSKEKEEKKQRTKKIVISSDSEDDGNFENYLKTLREKPTEPAKPERKIPVKKDFVVDDDYISEESSEEESEEEEEDVDDEEYRESSPEVEAKISYSDRKQKKRPTDEEEWFLLSLSEKFSGPIHEDAKVYIKETSLRYKKHRESLLTRLQDILVRRIFSAIPSEKLKVIWNARLRKSAGQCRNHSNGNSTVEMSPVVCTTAERVRDTLIHELCHAATWVVDRLHKEGHGPGWKRWGARCSSVFKSLPFIERCHSYEIEAKFFYVCEKDGCDVEIKRQSKSLDTSRKACGRCFGRFILYRYCRRTNTRIRIEDPKAKPVGPILSNSSKPSPPAPRRIVSEHPEGFKEYSEEHYWKYTAQGLKHSDVMGKLLKEFKELKQL	not soluble
EHAKQASSYIPLDRLSISYCRSSGPGGQNVNKVNSKAEVRFHLASADWIEEPVRQKIALTHKNKINKAGELVLTSESSRYQFRNLAECLQKIRDMIAEA	soluble
LFTPDKQRITESVAFKDLSSPELEQYIGDTQAEKLRADIELIDGVYQPFDKEEYLAGQLAPVFFGSALNNFGVQELLNCFVEIAPSPQPVAAVERKVDPHEEEFTGFVFKIHANMDPNHRSCIAFVKICSGRFERNTNYKHIRLGKQFRFSSPTAFMAQRKETVDEAYAGDIIGLPDTGNFQIGDTLTAGEELHFRGLPSFSPELFKYIENQDPMKAKQLAKGIDQLMGEGVAQLFTNQFNGRKIIGTVGQLQFEVIQYRLLHEYGAQCRWEPISLYKACWIDSDKPEALEAFKKRKAQYMAKDIAGRDVYLADSGYVLNMAQQDFPDIRFHFTSEF	not soluble
MGSDKIHHHHHHMNALPKLNQLRNLRAIIQHGNISAAAQMLHQTQSTLTRSIQELEKTLGVTLLDRGMNSTVLTKAGMMFEPRMNLILNELERAVDELRQIEKLSDGKIAFGCSHFPATSIVPDVIKKFQERHNSTRITIIEGQLSELLSSLRMGKLDFFIGVVSSDLMLNEFVEERLTSCSFSVVARKGHPLANSTSLAELQAAKWYIPAASHGYYSDLETVIFPNGVKSCGSVIFGDSSAIARKLVLNEDYLFVGPRPMFLAPHHKDLISIIPIKDKLPEGHYSLISPRNKKLTPAALNLVNEIRFAYFDFIKSHS	not soluble
MVTAEIRLYITEGEVEDYRVFLERLEQSGLEWRPATPEDADAVIVLAGLWGTRRDEILGAVDLARKSSKPIITVRPYGLENVPPELEAVSSEVVGWNPHCIRDALEDALDVI	not soluble
MSIKLFSLAKELNVGVGSLAGFLRKKGFDVEDNNPNVRIENEEFDLLLTEFGKSLPKGEAERIRKKFVKQKQGTPASAPSAKEETAGMAAKEAQVIATEVPQDMRPRFTIKGKVETEKPAEPVPSPKDKEPDTVREDKPARETAPVKEETKVVPVKEDKPKEEKPKQEEPKREEPKPEEPVQAAPVAKPVEKPVDKPQQPVMTQKPQEAETPPPAQEMEKKEDTEEVFRLKTNTQEPQVKVVGKIDLSSINSSTRPKKKTKEDRQREQNDADGKKKRKRINKAAVDVKKEAAKVSGEQGKRNAGGGNHSSGNKNNNRPAQQQSNASGGRKNNKRQSLPPKVEISDEDVQRQVKETLARLTTKKTSTTLGRGAKYRKDKRDAASRAAQDAMELNSEEQHTLKLTEFVTVSDLSNMMDVPVNEVIATCMSIGMMVGINQRLDAETINIVAEEFGFKTEFVSADLVEAIAPEEDNEEDLVA	not soluble
MTDHSIRSRALGAYLGLACGDALGATVEFLTKGEIAHQYGVHKHIKGGGWLKLPAGQVTDDTEMSIHLGRAILAAPEWDARRAAEEFAVWLKGVPVDVGDTTRRGIRRFIMHGTLSEPESEYHAGNGAAMRNLPVALATLGDDAAFERWTVEQAHITHCNAMSDAATLTLGHMVRRLVLGGDVRDVRDESNKLIAKHRQFKFQPYRGLATAYIVDTMQTVMHYYFQTDSVESCVVETVNQGGDADTTGAIAGMLAGATYGVETIPPRWLRKLDRDVYNEICAQVDGLLARAPALKQG	soluble
IGDWGYSVSANLTTISNKVKSLVQDGYSIIAGDKSQSYTMAGYPIGYFYGYKVAGVYQNQAEIDASPVNTLATVTPGDLKFADVNGDGKITPDDRTKIGDPTPDVTYGISLGLSYKNWELSMEMMGQGGNQIYRTWDNYNWAQFNYMEQRLDRWHGEGTSNTQPLLNTKHAINSENSEYFIEDGSFFRIRNLQLAYSFDKTLLSKIRMQALKVYVNIQNLKTWKHNTGYTPEIGGSAIAFGVDNGTYPVPAVYTFGINLTF	not soluble

— the DeepSol protein solubility set
